Experimental findings from patent US20260217847A1 (NANJING REGENECORE BIOTECH, published 2026) are described below.

One assay concerns the target T1, TfR1 peptide D1-helix1 (human).
T1 construct: Synthetic peptide, captured on a streptavidin-coated plate; also called peptide No. 1
T1 peptide: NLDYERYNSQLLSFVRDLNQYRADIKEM
Kind of assay: peptide ELISA on streptavidin plate, 2 µg/mL 2H7-hFc. On the procedure:
(§1) The peptide-antibody binding was identified using a standard enzyme-linked immunosorbent assay (ELISA). The steps were as follows: [0244] (1) The wells of an ELISA plate were coated with 100 μL of 2 μg/mL SA (streptavidin) protein at 4° C. overnight. […] (2) The wells of the ELISA plate were washed with PBST buffer. After adding 200 μL of 2% BSA, the plate was blocked at 37° C. for 1 h. […] (3) The peptide protein was diluted to 2 μg/mL, and a negative control and a positive control (AVI-tagged TfR1 protein) were included. Each experiment contained duplicate controls. […] (4) The wells of the ELISA plate were washed multiple times with PBST buffer. Then, 100 μL of the diluted peptide protein solution from step (3) was added into wells in duplicate, and along with the negative control wells, incubated at 37° C. for 1 h. [0248] (5) The wells of the ELISA plate were washed multiple times with PBST buffer. […] [0249] (6) The wells of the ELISA plate were washed multiple times with PBST buffer. Then, 100 μL of 2× anti-hFc HRP secondary antibody was added, and the plate was incubated at 37° C. for 1 h. [0250] (7) The wells of the ELISA plate were washed multiple times with PBST buffer. After adding 100 μL of TMB chromogenic solution, the reaction was carried out in the dark at room temperature for 30 min. [0251] (8) 100 μL of stop solution (1 mol/L HCl) was added to terminate the reaction. OD450 was measured using a microplate reader, and the readings were recorded.

Assay [1] has as its target T2, TfR1 peptide D1-helix2-helix3 (human).
T2 construct: Synthetic peptide, captured on a streptavidin-coated plate; also called peptide No. 4
T2 peptide: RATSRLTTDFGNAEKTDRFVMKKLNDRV
The description is as above. As for the experimental part: as §1

In assay [2] the target is T3, TfR1 peptide D3-helix1 (human).
T3 construct: Synthetic peptide, captured on a streptavidin-coated plate; also called peptide No. 5
T3 peptide: RLYWDDLKRKLSEKLDSTD
The assay is described as above. As for the experimental part: as §1

The next assay has as its target T4, TfR1 peptide D3-helix2 (human).
T4 construct: Synthetic peptide, captured on a streptavidin-coated plate; also called peptide No. 6
T4 peptide: FTSTIKLLNENSYV
Described as above. On the procedure:
as §1

Another assay deals with T5, TfR1 peptide D3-helix3 (human).
T5 construct: Synthetic peptide, captured on a streptavidin-coated plate; also called peptide No. 7
T5 peptide: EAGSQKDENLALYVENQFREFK
Described as above. On the procedure: as §1

For assay [3], the target named is T6, TfR1 peptide D3-helix1-helix2 (human).
T6 construct: Synthetic peptide, captured on a streptavidin-coated plate; also called peptide No. 8
T6 peptide: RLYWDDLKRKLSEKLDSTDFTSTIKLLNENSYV
The assay is described as above. On the procedure: as §1

Assay [4] deals with T7, TfR1 peptide D3-helix2-helix3 (human).
T7 construct: Synthetic peptide, captured on a streptavidin-coated plate; also called peptide No. 9
T7 peptide: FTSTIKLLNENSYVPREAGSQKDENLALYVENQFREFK
Described as above. On the procedure:
as §1

In assay [5] the target is T8, TfR1 peptide D3-helix3-loop1 (human).
T8 construct: Synthetic peptide, captured on a streptavidin-coated plate; also called peptide No. 10
T8 peptide: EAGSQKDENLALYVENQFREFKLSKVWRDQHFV
The description is as above. As for the experimental part:
as §1

Another assay concerns the target T9, TfR1 peptide D3-loop1 (human).
T9 construct: Synthetic peptide, captured on a streptavidin-coated plate; also called peptide No. 11
T9 peptide: LSKVWRDQHFV
Described as above. As for the experimental part: as §1

Another assay addresses T10, TfR1 peptide D2-loop1 (human).
T10 construct: Synthetic peptide, captured on a streptavidin-coated plate; also called peptide No. 12
T10 peptide: GTKKDFEDLY
Described as above. On the procedure: as §1

For a further assay, the target named is T11, TfR1 peptide D2-loop1-K (human).
T11 construct: Synthetic peptide, captured on a streptavidin-coated plate; also called peptide No. 13
T11 peptide: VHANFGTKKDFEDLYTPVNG
The assay is described as above. As for the experimental part:
as §1

The target of the next assay is T12, TfR1 peptide D2-loop3-K (human).
T12 construct: Synthetic peptide, captured on a streptavidin-coated plate; also called peptide No. 14
T12 peptide: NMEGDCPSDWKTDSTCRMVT
Described as above. On the procedure: as §1

Another assay concerns the target T13, TfR1 peptide D1-helix5 (human).
T13 construct: Synthetic peptide, captured on a streptavidin-coated plate; also called peptide No. 17
T13 peptide: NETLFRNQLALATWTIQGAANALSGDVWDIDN
The description is as above. As for the experimental part:
as §1

The next assay has as its target T14, TfR1 peptide D2-loop2-K (human).
T14 construct: Synthetic peptide, captured on a streptavidin-coated plate; also called peptide No. 21
T14 peptide: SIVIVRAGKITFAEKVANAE
Described as above. On the procedure:
as §1

A further assay deals with T15, TfR1 peptide D1-helix4 (human).
T15 construct: Synthetic peptide, captured on a streptavidin-coated plate; also called peptide No. 3
T15 peptide: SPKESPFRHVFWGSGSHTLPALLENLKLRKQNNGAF
Description: peptide ELISA on streptavidin plate, 2 µg/mL 2H7-hFc, anti-hFc HRP. On the procedure: as §1
For orientation: In an ELISA, binding on a coated surface is turned into a signal by an enzyme label.

Assay [6] concerns the target T2, TfR1 peptide D1-helix2-helix3. The description is as above. On the procedure: as §1
Assay [7] concerns the target T3, TfR1 peptide D3-helix1. The assay is described as above. On the procedure:
as §1

Assay [8] addresses T7, TfR1 peptide D3-helix2-helix3. Described as above. As for the experimental part: as §1

B1: anti-humanized TfR1 single-domain antibody-Fc fusion antibody 2H7-hFC1 (Fc fusion)
chain (part 1 of 2): ESGGGLVQPGESLRLSCVASGSIWSIYTMGWYRQAPGKQRDFVASITGDSTRTLESVKDRFIISRDNTKNTLYLQMNSLKPEDTAVYYCQAITSLGEYWGQGTQVTVSS
notes: Expressed in 293F cells, Protein A purified; labelled with pHrodo iFL Green in the internalization assays; also called VHH-hFc; not shown: human IgG1 Fc: hinge, CH2 and CH3 regions, from vector RJK-V4-hFC1; limits and junction (multiple cloning site) not stat
With B1, the binding result with TfR1 peptide D1-helix1 was “no binding (tested: P/N 1.2, limit 2)”; in assay [1], “no binding (tested: P/N 1.4, limit 2)”; in the assay with TfR1 peptide D3-helix1 [2], “no binding (tested: P/N 1.1, limit 2)”; in the assay with TfR1 peptide D3-helix2, “no binding (tested: P/N 1.3, limit 2)”; with TfR1 peptide D3-helix3, “no binding (tested: P/N 1.1, limit 2)”; in [3], “no binding (tested: P/N 1.1, limit 2)”. Moreover, the binding result is given as “no binding (tested: P/N 1.2, limit 2)” in assay [4]; “no binding (tested: P/N 1.7, limit 2)” in [5]; “no binding (tested: P/N 1.4, limit 2)” in the assay with TfR1 peptide D3-loop1; “no binding (tested: P/N 1.4, limit 2)” with TfR1 peptide D2-loop1; “no binding (tested: P/N 1.2, limit 2)” with TfR1 peptide D2-loop1-K; “no binding (tested: P/N 1.5, limit 2)” in the assay with TfR1 peptide D2-loop3-K. For the same molecule, the binding result with TfR1 peptide D1-helix5 was “no binding (tested: P/N 1.2, limit 2)”; with TfR1 peptide D2-loop2-K, “no binding (tested: P/N 1.3, limit 2)”. The OD450 turned out to be 1.49 with TfR1 peptide D1-helix4, 0.19 in assay [6], 0.147 in the assay with TfR1 peptide D3-helix1 [7] and 0.247 in assay [8]. The molecule also yielded a P/N with TfR1 peptide D1-helix4 of 9.5.
